Source: patent US20250235545A1, “POLYPEPTIDE CONJUGATE AND USE THEREOF” (SHANGHAI CHIXI BIOMEDICAL TECHNOLOGY CO., LTD, priority 2024, published 2025)
≈ marks a conversion by molar mass, not a printed value. Where two headings read alike, the source gives them in different places. Where a SMILES comes first, the peptide text is derived from it. The star is where a group is joined. Belotecan = CC[C@@]1(O)C(=O)OCc2c1cc1n(c2=O)Cc2c-1nc1ccccc1c2CCN(C(C)C)*; X8 = CC[C@@]1(O)C(=O)OCc2c1cc1n(c2=O)Cc2c-1nc1ccccc1c2CCN(C1CCCC1)*; X7 = CC[C@@]1(O)C(=O)OCc2c1cc1n(c2=O)Cc2c-1nc1ccccc1c2CCN(C)*; Propanoyl(3-maleimido) = O=C1C=CC(=O)N1CCC(=O)*; PEG6 = NCCOCCOCCOCCOCCOCCOCCC(=O)O

What was measured:
[1] = Tumor homogenate activation efficiency, non-small cell lung cancer tissue (Examples 28, 37); assay type: in vitro ADME; conditions: pH 5.0, 37° C., 2 h; Table 10
Method in brief: (§1)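 HPLC read-out: release % = Belotecan peak area / summed areas of Belotecan plus every Belotecan-containing compound. Samples were 1 mg/ml conjugate with 100 μg handheld-homogenized tissue in pH 5.0 MES/NaCl buffer, held 2 h at 37° C.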

[2] = Tumor homogenate activation efficiency, sarcoma tissue (Examples 28, 37); assay type: in vitro ADME; conditions: pH 5.0, 37° C., 2 h; Table 10
Method in brief: as §1

[3] = Tumor homogenate activation efficiency, colorectal cancer tissue (Example 37); assay type: in vitro ADME; conditions: pH 5.0, 37° C., 2 h; Table 10
Description: Buffer preparation: 50 mM PH buffer (MES), 250 mM NaCl, pH adjusted to 5.0 with 0.5 M of sodium hydroxide.
The polypeptide conjugate was prepared into a 1 mg/ml solution with pH 5.0 buffer, 100 μg of tumor tissue homogenate was added, (the tumor tissue homogenate was the homogenate of tumor tissues prepared with a Jingxin F6/10 handheld homogenizer), and the solution was placed at 37° C. for 2 h. The tumor tissue homogenate could effectively activate the polypeptide conjugate and release Belotecan, and the activation efficiencies of the drugs in tumor tissues were compared by HPLC allowing determination of a decrease in the compounds and an increase in Belotecan:
Release percentage=peak area of Belotecan/total peak area of Belotecan and all other Belotecan-containing compounds

[4] = system: sarcoma SJSA-1 tumor model; conditions: Table 7
Method in brief: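 Female BALB/c nude mice (6-8 weeks) bearing subcutaneous right-chest SJSA-1 xenografts from 2×10^7 cells were randomized, three per group, once tumors reached at least 100 mm^3. Treatment given once a week for three weeks starting day 1; saline controls.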

A2780 (ovarian cancer) = assay: cells; assay type: cell-based; conditions: CCK8, 48 h; Table 6
Method in brief: (§2)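 Proliferation was assessed by seeding 5,000 cells per well onto medium already containing the test drug at various concentrations. Plates stood 48 h at 37° C, then took CCK8 staining (~2 h) before A450 measurement. Median inhibitory concentrations come from survival relative to 0.1% DMSO controls.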

[5] = system: SKBR3 (breast cancer tissue); assay: cells; assay type: cell-based; conditions: CCK8, 48 h; Table 6
Method in brief: as §2

SJSA-1 (sarcoma tissue) = assay: cells; assay type: cell-based; conditions: CCK8, 48 h; Table 6
Method in brief: as §2

[6] = system: A549 (non-small cell lung cancer); assay: cells; assay type: cell-based; conditions: CCK8, 48 h; Table 6
Method in brief: as §2

[7] = system: sarcoma SJSA-1 tumor model; assay: Efficacy in animal model of sarcoma SJSA-1, 30 mg/kg once a week for two weeks (Example 40); assay type: in vivo, BALB/c mice; conditions: 30 mg/kg once a week for two weeks; Day 14
Description: Test objective: To further compare the antitumor efficacy of different polypeptide Linkers in an animal tumor model of sarcoma SJSA-1.
Test drug: Polypeptide conjugate and normal saline control group.
The control group was administered normal saline. Administration was performed once a week for two weeks.

[8] = Tumor homogenate activation efficiency, breast cancer tissue (Examples 28, 37); assay type: in vitro ADME; conditions: pH 5.0, 37° C., 2 h; Table 10
Method in brief: as §1

[9] = Tumor homogenate activation efficiency, ovarian cancer tissue (Examples 28, 37); assay type: in vitro ADME; conditions: pH 5.0, 37° C., 2 h; Table 10
Method in brief: as §1

[10] = system: colo320 colorectal cancer tumor model
Method in brief: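 Dosing was once a week for four weeks, with saline as control, in randomized groups of three mice. Groups were formed after subcutaneous colo320 xenografts (7.5×10^6 cells, right chest) grew to ≥120 mm^3 in female 6–8-week-old BALB/c nude mice.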

[11] = system: colo320 (colorectal cancer tissue); assay: cells; assay type: cell-based; conditions: CCK8, 48 h; Table 6
Description: Different types of cells were cultured with complete media (RPMI1640 (DMEM high sugar medium)+10% fetal bovine serum+1×P/S+sodium pyruvate 1 mM solution) in an incubator at 37° C. and 5% CO2 until the cells grew to a sufficient number, and the cells were collected, centrifuged at 1,000 g for 5 min, resuspended with an appropriate volume of a 10% RMPI1640 (DMEM high sugar medium) medium and adjusted to an appropriate density. In a 96-well culture plate, 100 μL of cell culture fluid containing different concentrations of drugs was added, control wells (0.1% DMSO) with only corresponding drug solvents without drugs, as well as blank wells (Blank) with only the medium but without cells were set, and three parallel wells were set in each group. After that, the cells after cell counting were inoculated onto 96-well culture plates, with 100 μL of cell suspension per well, and an inoculation concentration of the cells was 5,000 cells (100 μL)/well. The plates were then cultured in a CO2 (5%) incubator at 37° C. for 48 h. After 48 h, 10 μL of a cell proliferation staining reagent (CCK8) was added to each well, the plates were incubated in a cell incubator for around 2 h, and an absorbance at 450 nm was detected.
Cell survival rates and median inhibitory concentrations (IC50) of the drugs on the cells were calculated.

[12] = Homogenate activation efficiency, heart tissue (Examples 28, 37); assay type: in vitro ADME; conditions: pH 5.0, 37° C., 2 h; Table 10
[13] = MTD determination in mice (Examples 27, 36, 44); assay type: in vivo; conditions: female, mouse, in vivo; mice, monitored for 14 d; Table 9
Excerpt: Test animals: 6-8 weeks old mice, all female; mice were grouped randomly, with six mice in each group, administered with drugs at different concentration gradients separately and monitored for 14 d. A mouse was euthanized at a loss of 20% of its initial weight and deemed to have died of poisoning.

[14] = 15 mg/kg once a week for three weeks
[15] = 45 mg/kg once a week for three weeks
[16] = 15 mg/kg once a week for four weeks, Table 8
[17] = 45 mg/kg once a week for four weeks, Table 8
[18] = Table 14 (Example 43), dose 45 mg/kg, once a week for four weeks, BALB/c mice
[19] = Table 13 (Example 42), dose 45 mg/kg, once a week for four weeks, BALB/c mice

SMILES | Percentage of release efficiency (%) Non-small cell lung cancer tissue (A549) [1] | Percentage of release efficiency (%) Sarcoma tissue (SJSA1) [2] | Percentage of release efficiency (%) Colorectal cancer tissue (colo320) [3] | Mouse weight (%) [4, 14] | Mouse weight (%) [4, 15] | IC50 Ovarian cancer tissue (A2780) (A2780 (ovarian cancer)) | IC50 Breast cancer tissue (SKBR3) [5] | IC50 Sarcoma tissue (SJSA-1) (SJSA-1 (sarcoma tissue)) | IC50 Non-small cell lung cancer tissue (A549) [6] | Percentage of release efficiency (%) Breast cancer tissue (SKBR3) [8] | Percentage of release efficiency (%) Ovarian cancer tissue (A2780) [9] | Mouse weight (%) [10, 16] | Mouse weight (%) [10, 17] | Mouse weight (%) [10, 18] | IC50 Colorectal cancer tissue (colo320) [11] | Percentage of release efficiency (%) Heart tissue [12] | MTD at 14 d [13] | SJSA-1 (sarcoma tissue) growth rate (%) [4, 15] | SJSA-1 (sarcoma tissue) mean tumor volume (mm^3) [4, 15] | colo320 (colorectal cancer cell) growth rate (%) [10, 17] | also measured
CC[C@@]1(O)C(=O)OCc2c1cc1n(c2=O)Cc2c-1nc1ccccc1c2CCN(C(=O)[C@H](CC(C)C)NC(=O)[C@H](CC(N)=O)NC(=O)[C@H](C)NC(=O)[C@H](C)NC(=O)CCOCCOCCOCCOCCOCCOCCNC(=O)CCN1C(=O)C=CC1=O)C(C)C [MI-6PEG-AANL-Belotecan] ({Propanoyl(3-maleimido)-PEG6}-AANL-Belotecan) | 76.5% | 75.5% | 75.6% | +24% | +21% | 0.91 µg/mL (≈ 0.706 µM) | 2.48 µg/mL (≈ 1.92 µM) | 0.90 µg/mL (≈ 0.698 µM) | 1.55 µg/mL (≈ 1.2 µM) | 69.5% | 81.2% | +22% | +2% | +2% | 2.74 µg/mL (≈ 2.12 µM) | 2.5% | 150 mg/kg | – | – | – | Mouse weight (%) on Day 14 [7]: −1.3%
CC[C@@]1(O)C(=O)OCc2c1cc1n(c2=O)Cc2c-1nc1ccccc1c2CCN(C)C(=O)[C@H](CC(C)C)NC(=O)[C@H](CC(N)=O)NC(=O)[C@H](C)NC(=O)[C@H](C)NC(=O)CCOCCOCCOCCOCCOCCOCCNC(=O)CCN1C(=O)C=CC1=O [MI-6PEG-AANL-D1] ({Propanoyl(3-maleimido)-PEG6}-AANL-X7) | 69.5% | 81.2% | 72.4% | – | +29% | 2.09 µg/mL (≈ 1.66 µM) | 3.25 µg/mL (≈ 2.58 µM) | 2.33 µg/mL (≈ 1.85 µM) | 3.05 µg/mL (≈ 2.42 µM) | 80% | 66.4% | – | +16% | +16% | 3.82 µg/mL (≈ 3.03 µM) | 3% | 200 mg/kg | – | – | – | –
CC[C@@]1(O)C(=O)OCc2c1cc1n(c2=O)Cc2c-1nc1ccccc1c2CCN(C(=O)[C@H](CC(C)C)NC(=O)[C@H](CC(N)=O)NC(=O)[C@H](C)NC(=O)[C@H](C)NC(=O)CCOCCOCCOCCOCCOCCOCCNC(=O)CCN1C(=O)C=CC1=O)C1CCCC1 [MI-6PEG-AANL-D8] ({Propanoyl(3-maleimido)-PEG6}-AANL-X8) | 68.4% | 81.1% | 78.9% | – | +17% | 1.27 µg/mL (≈ 0.965 µM) | 1.98 µg/mL (≈ 1.51 µM) | 1.54 µg/mL (≈ 1.17 µM) | 2.27 µg/mL (≈ 1.73 µM) | 70.2% | 71% | +33% | +15% | – | 2.97 µg/mL (≈ 2.26 µM) | 2.2% | 200 mg/kg | – | – | – | –
CC[C@@]1(O)C(=O)OCc2c1cc1n(c2=O)Cc2c-1nc1ccccc1c2CCN(C(=O)[C@H](CC(C)C)NC(=O)[C@H](Cc1ccccc1)NC(=O)CNC(=O)CNC(=O)CCOCCOCCOCCOCCOCCOCCNC(=O)CCN1C(=O)C=CC1=O)C(C)C [MI-6PEG-GGFL-Belotecan] ({Propanoyl(3-maleimido)-PEG6}-GGFL-Belotecan) | 77.3% | 68% | 83.1% | +27% | +22% | 1.91 µg/mL (≈ 1.48 µM) | 3.69 µg/mL (≈ 2.85 µM) | 1.24 µg/mL (≈ 0.958 µM) | 2.21 µg/mL (≈ 1.71 µM) | 73.2% | 73.6% | +27% | +5% | +5% | 2.86 µg/mL (≈ 2.21 µM) | 1.8% | 100 mg/kg | 995.32% | 1254.1 mm^3 | 671.56% | SJSA-1 (sarcoma tissue) growth rate (%) [4, 14]: 1134.95%; SJSA-1 (sarcoma tissue) mean tumor volume (mm^3) [4, 14]: 1278.6 mm^3; colo320 (colorectal cancer cell) growth rate (%) [10, 16]: 994.05%; colo320 (colorectal cancer cell) mean tumor volume (mm^3) [10, 16]: 1254.2 mm^3; colo320 (colorectal cancer cell) mean tumor volume (mm^3) [10, 17]: 789.4 mm^3; Mouse weight (%) [10, 19]: +5%; colo320 (colorectal cancer cell) growth rate (%) [10, 19]: 671.56%; colo320 (colorectal cancer cell) mean tumor volume (mm^3) [10, 19]: 789.4 mm^3; colo320 (colorectal cancer cell) growth rate (%) [10, 18]: 671.56%; colo320 (colorectal cancer cell) mean tumor volume (mm^3) [10, 18]: 789.4 mm^3
CC[C@@]1(O)C(=O)OCc2c1cc1n(c2=O)Cc2c-1nc1ccccc1c2CCN(C)C(=O)[C@H](CC(C)C)NC(=O)[C@H](Cc1ccccc1)NC(=O)CNC(=O)CNC(=O)CCOCCOCCOCCOCCOCCOCCNC(=O)CCN1C(=O)C=CC1=O [MI-6PEG-GGFL-D1] ({Propanoyl(3-maleimido)-PEG6}-GGFL-X7) | 82.5% | 73.5% | 86.7% | – | +11% | – | – | – | – | 69.5% | 80% | – | +19% | +19% | – | 1.4% | 120 mg/kg | 1181.64% | 1485.2 mm^3 | 766.16% | colo320 (colorectal cancer cell) mean tumor volume (mm^3) [10, 17]: 900.6 mm^3; Mouse weight (%) [10, 19]: +19%; colo320 (colorectal cancer cell) growth rate (%) [10, 19]: 766.16%; colo320 (colorectal cancer cell) mean tumor volume (mm^3) [10, 19]: 900.6 mm^3; colo320 (colorectal cancer cell) growth rate (%) [10, 18]: 766.16%; colo320 (colorectal cancer cell) mean tumor volume (mm^3) [10, 18]: 900.6 mm^3
